From patent US11078245B2, “Colon and pancreas cancer peptidomimetics” (PRECISION BIOLOGICS, INC., priority 2010, dated 2021)
Values joined by “and” are separate entries in the source; they are usually repeats but may differ in a detail not shown here. Equal values may be shown once. Read-outs that look alike come from different tables or passages of the source.

Columns and labels:
[1] = tested on: colorectal cancer cell line LS174T; experiment: Immunofluorescence with FITC labeled NEO-101; format: cell-based; conditions: 2 μg/ml FITC labeled antibody
Description: (§1) FACs data showing NEO-101 antibody binding to colon cancer and pancreatic cancer cell lines. Cells were washed and suspended in either 2 μg/ml NEO-101-FITC or isotype control antibody-FITC for 1 hour, washed and then subjected to FACS analysis. Experiments with all cell lines were repeated at least three times. […] DAPI was used to stain the nucleus. […] The staining pattern of these pancreatic and colorectal tumor cells was predominantly membrane-associated, consistent with the expression profile of MUC5AC.

[2] = tested on: pancreatic cancer cell line AsPC-1; experiment: Immunofluorescence with FITC labeled NEO-101; format: cell-based; conditions: 2 μg/ml FITC labeled antibody
Description: as §1

Pharmacokinetics = format: in vivo, mice; conditions: for serum half-life (t½): single dose 100 mg/kg
Description: To determine whether gender impacted the disposition of NEO-101 in vivo, each treatment group contained four males and four females. Clearance, Cmax and half-life following a single dose of 10 or 100 mg/kg were compared by non-parametric Mann-Whitney test. […] However, the serum half-life of NEO-101 was shorter in females than in males. […] However, it is likely that this is a spurious observation, arising from high inter-animal variability, as this difference in half-life was not replicated following multiple doses, regardless of dose level.
The data provides useful guidance for the dosing schedule of possible therapeutic regimes. Mice injected intravenously with 10 mg/kg of NEO-101 may be used for comparison to the doses used in therapy regiments for humans, for instance.

CFPAC1 cells = experiment: NEO-101-coupled Dynal beads rosette assay; format: cell-based, human; conditions: antibody-coupled Dynal beads with TBS, no M13 clone
Description: The M13 clones identified by the biopanning were also immunoassayed using magnetic beads. Aliquots of 5 μl M13 phage (10^11/10 μl) were mixed with 10 μl NEO-101-coupled Dynal® beads at RT for 20 min on a rotator. CFPAC1 cells (30 μl of 10^6 cells/ml) were added and incubated at 4° C. for 30 min. Rosetted cells were counted (>8 beads/cell).

Normal colon = experiment: Immunohistochemistry: human tissues with biotinylated NEO-101; format: binding
Description: (§2) Consequently, the positively stained “normal” tissues may have already undergone genotypic changes (“pre-cancerous”) resulting in the expression of the aberrantly glycosylated MUC5AC antigen that could lead to detection of carcinoma with NEO-101.

Prostate cancer = experiment: as above; format: binding
Description: as §2

Normal uterus = experiment: as above; format: binding
Description: as §2

Pancreas cancer = experiment: as above; format: binding
Description: as §2

Uterus cancer = experiment: as above; format: binding
Description: as §2

Normal prostate = experiment: as above; format: binding
Description: as §2

Colon cancer = experiment: as above; format: binding
Description: as §2

Normal pancreas = experiment: as above; format: binding
Description: as §2

B1: NEO-101: Chimeric NEO-101 antibody, engineered in CHO-DG44 production cell clone 4B7; targets a variant of MUC5AC (protein)
light: QVVLTQSPVIMSASPGEKVTMTCSASSSISYMYWYQQKPGTSPKRWIYDTSKLASGVPARFSGSGSGTSYSLTISNMEAGDAATYYCHQRDSYPWTFGGGTNLEIK
heavy: QVQLKESGPDLVAPSQSLSITCTVSGFSLSKFGVNWVRQPPGKGLEWLGVIWGDGSTSYNSGLISRLSISKENSKSQVFLKLNSLQADDTATYYCVKPGGDYWGHGTSVTVSS
binding by immunofluorescence [1]: binds | binding by immunofluorescence [2]: binds | serum half-life (t½) (Pharmacokinetics; females): 109.5 ± 14.72 h | serum half-life (t½) (Pharmacokinetics; males): 285.4 ± 139.5 h | clearance (Pharmacokinetics; mice): low clearance | volume of distribution (Pharmacokinetics; mice): limited volume of distribution | gender-specific differences in clearance or Cmax (Pharmacokinetics; single dose of 10 or 100 mg/kg): No significant gender-specific differences were observed | Positive rosette cells (%) (CFPAC1 cells): 41% | Tissue staining intensity +2 (Normal colon): (25%) | Tissue staining intensity Negative (Normal colon): (75%) | Total Positive (Normal colon): (25%) | Tissue staining intensity +2 (Normal colon; samples/total): 1/4 | Tissue staining intensity Negative (Normal colon; samples/total): 3/4 | Total Positive (Normal colon; samples/total): one of four and 1/4 | Tissue staining intensity +1 (Prostate cancer): (12%) | Tissue staining intensity +2 (Prostate cancer): (12%) | Tissue staining intensity Negative (Prostate cancer): (75%) | Total Positive (Prostate cancer): (25%) | Tissue staining intensity +1 (Prostate cancer; samples/total): 5/40 | Tissue staining intensity +2 (Prostate cancer; samples/total): 5/40 | Tissue staining intensity Negative (Prostate cancer; samples/total): 30/40 | Total Positive (Prostate cancer; samples/total): 10/40 | Tissue staining intensity Negative (Normal uterus): (100%) | Total Positive (Normal uterus): (0%) | Tissue staining intensity Negative (Normal uterus; samples/total): 12/12 | Total Positive (Normal uterus; samples/total): 0/12 | Tissue staining intensity +1 (Pancreas cancer): (16%) | Tissue staining intensity +2 (Pancreas cancer): (6%) | Tissue staining intensity +3 (Pancreas cancer): (17%) | Tissue staining intensity +4 (Pancreas cancer): (9%) | Tissue staining intensity Negative (Pancreas cancer): (52%) | Tissue staining intensity +1 (Pancreas cancer; samples/total): 17/108 | Tissue staining intensity +2 (Pancreas cancer; samples/total): 7/108 | Tissue staining intensity +3 (Pancreas cancer; samples/total): 18/108 | Tissue staining intensity +4 (Pancreas cancer; samples/total): 10/108 | Tissue staining intensity Negative (Pancreas cancer; samples/total): 56/108 | Total Positive (Pancreas cancer; samples/total): 52/108 | Tissue staining intensity +2 (Uterus cancer): (5%) | Tissue staining intensity +3 (Uterus cancer): (19%) | Tissue staining intensity Negative (Uterus cancer): (76%) | Total Positive (Uterus cancer): (24%) | Tissue staining intensity +2 (Uterus cancer; samples/total): 2/42 | Tissue staining intensity +3 (Uterus cancer; samples/total): 8/42 | Tissue staining intensity Negative (Uterus cancer; samples/total): 32/42 | Total Positive (Uterus cancer; samples/total): 10/42 | Tissue staining intensity Negative (Normal prostate): (100%) | Total Positive (Normal prostate): (0%) | Tissue staining intensity Negative (Normal prostate; samples/total): 4/4 | Total Positive (Normal prostate; samples/total): 0/4 | Tissue staining intensity +1 (Colon cancer): (15%) | Tissue staining intensity +2 (Colon cancer): (8%) | Tissue staining intensity +4 (Colon cancer): (10%) | Tissue staining intensity Negative (Colon cancer): (56%) | Tissue staining intensity Weak (Colon cancer): (10%) | Tissue staining intensity +1 (Colon cancer; samples/total): 7/48 | Tissue staining intensity +2 (Colon cancer; samples/total): 4/48 | Tissue staining intensity +4 (Colon cancer; samples/total): 5/48 | Tissue staining intensity Negative (Colon cancer; samples/total): 27/48 | Tissue staining intensity Weak (Colon cancer; samples/total): 5/48 | Total Positive (Colon cancer; samples/total): 21/48 | Tissue staining intensity Negative (Normal pancreas): (100%) | Total Positive (Normal pancreas): (0%) | Tissue staining intensity Negative (Normal pancreas; samples/total): 3/3 | Total Positive (Normal pancreas; samples/total): 0/3
